Test results reported in patent US20220412989A1, “COMPOSITIONS AND METHODS FOR DETECTING CELLS UNDERGOING FERROPTOSIS USING AN ANTIBODY” (THE TRUSTEES OF COLUMBIA UNIVERSITY IN THE CITY OF NEW YORK, priority 2020, published 2022).

What was measured:
HT-1080 cells = experiment: Immunofluorescence staining of cells treated with cell death inducers, membrane intensity; format: cell-based, human
Method: HT-1080 (ATCC Cat #CRL-7951, RRID:CVCL_0317), A-673, SK-BR-3, SK-LMS-1 and Huh-7 cells were treated with 1 μM RSL3 for 4 h, 15 μM erastin for 8 h, 10 μM IKE for 8 h, 15 μM FINO2 for 8 h, 10 μM FIN56 for 8 h, 100 μM tBuOOH for 8 h, 1 μM staurosporine (STS) for 6 h, 2 μM camptothecin (CPT) for 24 h, 1 μM RSL3+5 μM Fer-1 for 4 h and 10 μM IKE+5 μM Fer-1 for 8 h on poly-lysine-coated cover slips (Sigma Aldrich P4832) in 24-well plate. Media were taken out and the cells were gently washed with PBS^++ (PBS with 1 mM CaCl2) and 0.5 mM MgCl2) twice. The cells were fixed and permeabilized by adding 200 μL/well of 4% paraformaldehyde (PFA) in PBS with 0.1% Triton X-100 (PBT), and incubated at room temperature for 18 min. The cells were then washed with PBT three times. Then the cells were blocked with 5% goat serum (ThermoFisher 50197Z) in PBT for 1 h at room temperature. The cells were incubated with purified mouse monoclonal antibodies (1:5 dilution), mouse mAb 3F3 FMA (1:500 dilution), Transferrin Receptor/CD71 Monoclonal Antibody, Clone: H68.4, Invitrogen (Thermo Fisher Scientific Cat #13-6800, RRID:AB_2533029, 1:250 dilution), Cd71 (D7G9X) XP® Rabbit mAb (Cell Signaling Technology Cat #13113, RRID:AB_2715594, 1:100 dilution), CD71 (3B8 2A1) (Santa Cruz Biotechnology Cat #sc-32272, RRID:AB_627167, 1:50 dilution), Tom20 (FL-145) (Santa Cruz Biotechnology Cat #sc-11415, RRID:AB_2207533, 1:250 dilution), PDI antibody [RL90]—ER Marker (Abcam Cat #ab2792, RRID:AB_303304, 1:100 dilution), Gm130 (D6B1) XP® Rabbit mAb (Cell Signaling Technology Cat #12480, RRID:AB_2797933, 1:3200 dilution), Anti-Malondialdehyde antibody (Abcam Cat #ab6463, RRID:AB_305484, 1:400 dilution), Anti-4 Hydroxynonenal antibody (Abcam Cat #ab46544, RRID:AB_722493, 1:50 dilution), ACSL4 Antibody (F-4) (Santa Cruz Biotechnology Cat #sc-365230, RRID:AB_10843105, 1:50 dilution), mouse mAb 1F83 (1:100 dilution), which specifically recognizes the malondialdehyde (MDA)-lysine adduct 4-methyl-1,4-dihydropyridine-3,5-dicarbaldehyde (MDHDC) (Yamada et al., 2001), in PBT with 1% BSA and 5% goat serum overnight at 4° C. The cells were washed with PBT for 5 min three times. The cells were incubated with Goat anti-Mouse IgG (H+L) Highly Cross-Adsorbed Secondary Antibody, Alexa Fluor 594 (Thermo Fisher Scientific Cat #A-11032, RRID:AB_2534091, 1:200 dilution) or Goat anti-Rabbit IgG (H+L) Highly Cross-Adsorbed Secondary Antibody, Alexa Fluor 488 (Thermo Fisher Scientific Cat #A-11034, RRID:AB_2576217, 1:200 dilution) at room temperature for 1 h. The cells were washed with PBT for 5 min three times. ProLong Diamond antifade mountant with DAPI (ThermoFisher P36962) was added to stain the nucleus. All images were captured on a Zeiss LSM 800 confocal microscope at Plan-Apochromat 63x/1.40 Oil DIC objective with constant laser intensity for all samples. When applicable, line-scan analysis was performed on representative confocal microscopy images using Zeiss LSM software to qualitatively visualize fluorescence overlap.
The quantification of the intensity of antibodies was analyzed using CellProfiler 3.1.8 (Carpenter et al., 2006) (CellProfiler Image Analysis Software, RRID:SCR_007358). Nuclei were firstly identified as primary objects using global minimum cross entropy strategy. […] Then mean intensities and size areas of nuclei, cytoplasm and plasma membranes were then measured and reported. […]

[1] = tested on: TfR1 protein in HT-1080 cells; experiment: Western blot of TfR1 during ferroptosis; format: cell-based, human; conditions: RSL3-induced and IKE-induced ferroptosis
Method: HT-1080 cells were seeded in DMEM (Corning 10-013-CM) and 10% Hi-FBS with 1% penicillin and streptomycin (PS) with 1% MEM Non-Essential Amino Acids Solution (100×) (Thermo Fisher Scientific 11140-076) 16 h prior to use. DMSO or 1 μM of RSL3 was added and incubated for 4 h. Following treatment, the medium was aspirated from each dish and cells were washed twice with PBS. Cells were lysed with 70 μl lysis buffer (RIPA buffer from ThermoFisher, cat. 89900, 1 mM EDTA, 1 mM PMSF, 1× Halt™ protease inhibitor cocktail from ThermoFisher, cat. 78430 and 1× Halt™ phosphatase inhibitor cocktail from ThermoFisher, cat. 78426). Unlysed cells and debris were pelleted for 15 min at 16,000×g at 4° C. Samples were separated using SDS-PAGE and transferred to a polyvinylidene difluoride membrane. Transfer was performed using the iBlot2 system (Invitrogen). […]

B1: 3F3-FMA: murine monoclonal IgG1 raised against ferroptotic membrane fractions; antigen is human transferrin receptor protein 1 (TfR1) (antibody, V domains shown)
VH: EVLLQQSGTELVRPGALVKLSCKASGFNIQDLYIHWVKQRPEQGLEWIGWIDPETDNTIYDPKFQGKASITADTSSNTAYLQLSSLTSEDTAMYYCSTGLLQWYFDVWGAGTAVTVSS
VL: DIVMTQSPSSLAMSIGQKVTMRCKSSQSLLNSYNQKNCLAWYQQKPGQSPKLLLYFVSTRESGVPDRFIGSGSGTDFTLTISSVQAEDLADYFCQQHYSTPLTFGAGTKLELK
- staining / membrane intensity in RSL3-induced ferroptosis (HT-1080 cells; 1 μM RSL3, 4 h vs DMSO): stained cell boundaries and the inside puncta became brighter
- cell surface / membrane staining in STS-induced apoptosis (HT-1080 cells; 1 μM staurosporine, 6 h): wasn't detected
- cell surface / membrane intensity in camptothecin-induced apoptosis (HT-1080 cells; 2 μM camptothecin, 24 h): no significant increase
- membrane intensities in H2O2-treated cells (HT-1080 cells; 1 mM H2O2, 4 h): didn't observe increased membrane intensities
- staining pattern with other ferroptosis inducers (HT-1080 cells; IKE, erastin, FIN56, FINO2 and tBuOOH, 8 h): the same changes of 3F3-FMA pattern were observed
- intensity of the bands in western blotting [1]: increased intensity of the bands
